Measured values as given in patent US20250223336A1.

Key:
[1] = target: SARS-COV-2 spike protein on virus-like particles (VLPs) (SARS-COV-2) (UniProt P0DTC2); assay: cell-based or functional assay
[2] = target: wild type SARS-COV-2 spike receptor binding domain (RBD), 6His-Strep-TEV-RBD construct, refolded from E. coli (SARS-COV-2) (UniProt P0DTC2)

Substance: LCB3 de novo designed miniprotein (from Cao et al., synthesised through recombinant expression in E. coli) (designed binder)
- reduction in FITC signal (VLP binding to A549 cells) [1]: 84%
- Kd [2]: 926 nM
- Response Amplitude [2]: 73.5
